Data as given in patent US20120178701A1 (PALATIN TECHNOLOGIES, published 2012).
Numbered stars: 1 amine (or outer) side, 2 acyl side, 3 side chain; on linkers, the order of the positions; unused ones are H or OH. Bridge positions count the residues as written; N and C are the ends. Square brackets hold non-standard residues; d marks the D form. * marks the point of attachment. Hyp(Bzl) = O-benzyl-hydroxyproline, O=C([C@@H]1C[C@@H](OCc2ccccc2)CN1[*:1])[*:2]; Thr(Bzl) = O-benzyl-threonine, C[C@@H](OCc1ccccc1)[C@H](N[*:1])C(=O)[*:2]; Pro(trans-4-NH2) = O=C([C@@H]1C[C@@H](N[*:3])CN1[*:1])[*:2]; Phe(3-CONH2) = NC(=O)c1cccc(C[C@H](N)C(=O)O)c1; Phe(4-CONH2) = NC(=O)c1ccc(C[C@H](N)C(=O)O)cc1; Met(O2) = CS(=O)(=O)CC[C@H](N)C(=O)O; Hyp = O=C(O)[C@@H]1C[C@@H](O)CN1; Met(O) = CS(=O)CC[C@H](N)C(=O)O; Cit = NC(=O)NCCC[C@H](N)C(=O)O; Orn = NCCC[C@H](N)C(=O)O; Dab = NCC[C@H](N)C(=O)O; Pentanoyl = CCCCC(=O)*

How the values were obtained:
[1] = biological target: T1, human recombinant melanocortin-4 receptor (human, UniProt P32245 1-332); assay: competitive inhibition of Eu-NDP-α-MSH (TRF), hMC4-R HEK-293 membranes
T1 construct: whole, on cells; cAMP assays used the whole cells; also called hMC4-R; MC4-R
T1 sequence (P32245 whole entry): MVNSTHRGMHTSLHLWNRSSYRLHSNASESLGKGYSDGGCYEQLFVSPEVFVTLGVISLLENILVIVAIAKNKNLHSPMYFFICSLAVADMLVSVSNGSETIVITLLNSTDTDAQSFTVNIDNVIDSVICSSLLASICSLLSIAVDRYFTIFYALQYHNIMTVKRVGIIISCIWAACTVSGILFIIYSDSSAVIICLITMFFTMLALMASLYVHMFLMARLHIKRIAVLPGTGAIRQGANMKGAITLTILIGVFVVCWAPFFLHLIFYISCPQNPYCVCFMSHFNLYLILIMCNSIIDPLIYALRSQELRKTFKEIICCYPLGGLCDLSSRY
Method: After incubation for 90 minutes at 37° C., the reaction was stopped by filtration over AcroWell 96-well filter plates (Pall Life Sciences). The filter plates were washed 4 times with 200 μL of ice-cold phosphate-buffered saline. DELFIA Enhancement solution (PerkinElmer Life Sciences) was added to each well. The plates were incubated on a shaker for 15 minutes and read at 340 nm excitation and 615 nm emission wavelengths. Each assay was conducted in duplicate and mean values were utilized. Ki values were determined by curve-fitting with Graph-Pad Prism® software using a one-site fixed-slope competition binding model.
(§1) 9.1 Peptides of the following structures were synthesized by the general methods described above, and averaged MC4-R Ki values for peptides were determined as indicated. […] Ki values marked “ND” were not determined.

[2] = biological target: T1, human recombinant melanocortin-4 …; assay: competitive inhibition of [I125]-NDP-α-MSH, hMC4-R HEK-293 membranes
Method: A competitive inhibition binding assay is performed using membrane homogenates prepared from HEK-293 cells that express recombinant hMC4-R, hMC3-R, or hMC5-R, and from B-16 mouse melanoma cells (containing endogenous MC1-R). In some instances, HEK-293 cells that express recombinant hMC1-R were employed. In the examples that follow, all MC3-R, MC4-R and MC5-R values are for human recombinant receptors. […] Membrane homogenates were incubated with 0.2 nM (for hMC4-R) 0.4 nM (for MC3-R and MC5-R) or 0.1 nM (for mouse B16 MC1-R or hMC1-R) [I¹²⁵]-NDP-α-MSH (Perkin Elmer) and increasing concentrations of test peptides of the present invention in buffer containing 25 mM HEPES buffer (pH 7.5) with 100 mM NaCl, 2 mM CaCl₂, 2 mM MgCl₂, 0.3 mM 1,10-phenanthroline, and 0.2% bovine serum albumin. After incubation for 60 minutes at 37° C., the assay mixture was filtered and the membranes washed three times with ice-cold buffer. Filters were dried and counted in a gamma counter for bound radioactivity. […] Maximal specific binding (100%) was defined as the difference in radioactivity (cpm) bound to cell membranes in the absence and presence of 1 μM NDP-α-MSH. […] Each assay was conducted in triplicate and the actual mean values are described, with results less than 0% reported as 0%. Ki values for test peptides of the present invention were determined using Graph-Pad Prism® curve-fitting software.
as §1

| Binder | Ki [1] | Ki [2] |
| --- | --- | --- |
| Ac-RD[Hyp(Bzl)][dF]RWK-NH2 (lactam 2-7, also called peptide No. 15) [Ac-Arg-cyclo(Asp-Hyp(Bzl)-D-Phe-Arg-Trp-Lys)-NH2] | 0.7 nM | – |
| Ac-RDN[dF]RWK-OH (lactam 2-7, also called peptide No. 56) [Ac-Arg-cyclo(Asp-Asn-D-Phe-Arg-Trp-Lys)-OH] | – | 100 nM |
| RDAFKWK (HELM PEPTIDE1{[ac].R.D.A.[dF].K.W.K.[am]}$PEPTIDE1,PEPTIDE1,3:R3-8:R3$$$V2.0; SMILES CC(=O)N[C@@H](CCCNC(=N)N)C(=O)N[C@H]1CC(=O)NCCCC[C@@H](C(N)=O)NC(=O)[C@H](Cc2c[nH]c3ccccc23)NC(=O)[C@H](CCCCN)NC(=O)[C@@H](Cc2ccccc2)NC(=O)[C@H](C)NC1=O, also called peptide No. 8) [Ac-Arg-cyclo(Asp-Ala-D-Phe-Lys-Trp-Lys)-NH2] | 3020 nM | – |
| Ac-RDQ[dF]RWK-OH (lactam 2-7, also called peptide No. 57) [Ac-Arg-cyclo(Asp-Gln-D-Phe-Arg-Trp-Lys)-OH] | – | 115 nM |
| Ac-RDA[dF]RWK-NH2 (lactam 2-7, also called peptide No. 9) [Ac-Arg-cyclo(Asp-Ala-D-Phe-Arg-Trp-Lys)-NH2] | 19 nM | – |
| Ac-RD[Phe(3-CONH2)][dF]RWK-NH2 (lactam 2-7, also called peptide No. 49) [Ac-Arg-cyclo(Asp-Phe-(3-(C(═O)-NH2))-D-Phe-Arg-Trp-Lys)-NH2] | – | 15 nM |
| Ac-RDS[dF]RWK-NH2 (lactam 2-7, also called peptide No. 3) [Ac-Arg-cyclo(Asp-Ser-D-Phe-Arg-Trp-Lys)-NH2] | – | 172 nM |
| RDAFRWK (HELM PEPTIDE1{[ac].R.D.A.[dF].R.W.K}$PEPTIDE1,PEPTIDE1,3:R3-8:R3$$$V2.0; SMILES CC(=O)N[C@@H](CCCNC(=N)N)C(=O)N[C@H]1CC(=O)NCCCC[C@@H](C(=O)O)NC(=O)[C@H](Cc2c[nH]c3ccccc23)NC(=O)[C@H](CCCNC(=N)N)NC(=O)[C@@H](Cc2ccccc2)NC(=O)[C@H](C)NC1=O, also called peptide No. 52) [Ac-Arg-cyclo(Asp-Ala-D-Phe-Arg-Trp-Lys)-OH] | 144 nM | – |
| Ac-RD[Phe(4-CONH2)][dF]RWK-NH2 (lactam 2-7, also called peptide No. 50) [Ac-Arg-cyclo(Asp-Phe(4-(C(═O)-NH2))-D-Phe-Arg-Trp-Lys)-NH2] | – | 30 nM |
| Ac-RDK[dF]RWK-NH2 (lactam 2-7, also called peptide No. 2) [Ac-Arg-cyclo(Asp-Lys-D-Phe-Arg-Trp-Lys)-NH2] | – | 30 nM |
| QDXFRWK (HELM PEPTIDE1{[ac].Q.D.[Dab].[dF].R.W.K.[am]}$PEPTIDE1,PEPTIDE1,3:R3-8:R3$$$V2.0; SMILES CC(=O)N[C@@H](CCC(N)=O)C(=O)N[C@H]1CC(=O)NCCCC[C@@H](C(N)=O)NC(=O)[C@H](Cc2c[nH]c3ccccc23)NC(=O)[C@H](CCCNC(=N)N)NC(=O)[C@@H](Cc2ccccc2)NC(=O)[C@H](CCN)NC1=O, also called peptide No. 142) [Ac-Gln-cyclo(Asp-Dab-D-Phe-Arg-Trp-Lys)-NH2] | – | 15 nM |
| Ac-RD[Pro(Bn)][dF]RWK-OH (lactam 2-7, also called peptide No. 55) [Ac-Arg-cyclo(Asp-Pro(Bn)-D-Phe-Arg-Trp-Lys)-OH] | – | 12 nM |
| Ac-RE[Met(O)][dF]RW[Orn]-NH2 (lactam 2-7, also called peptide No. 111) [Ac-Arg-cyclo(Glu-Met(═O)-D-Phe-Arg-Trp-Orn)-NH2] | – | 9 nM |
| Ac-REK[dF]RW[Orn]-NH2 (lactam 2-7) [Ac-Arg-cyclo(Glu-Lys-D-Phe-Arg-Trp-Orn)-NH2] | – | 15 nM |
| Ac-REN[dF]RW[Orn]-OH (lactam 2-7, also called peptide No. 91) [Ac-Arg-cyclo(Glu-Asn-D-Phe-Arg-Trp-Orn)-OH] | – | 167 nM |
| Ac-RDK[dF][Cit]WK-NH2 (lactam 2-7, also called peptide No. 116) [Ac-Arg-cyclo(Asp-Lys-D-Phe-Cit-Trp-Lys)-NH2] | – | 873 nM |
| XXNFRWE (HELM PEPTIDE1{[ac].[Orn].[Orn].N.[dF].R.W.E.[am]}$PEPTIDE1,PEPTIDE1,3:R3-8:R3$$$V2.0; SMILES CC(=O)N[C@@H](CCCN)C(=O)N[C@H]1CCCNC(=O)CC[C@@H](C(N)=O)NC(=O)[C@H](Cc2c[nH]c3ccccc23)NC(=O)[C@H](CCCNC(=N)N)NC(=O)[C@@H](Cc2ccccc2)NC(=O)[C@H](CC(N)=O)NC1=O, also called peptide No. 158) [Ac-Orn-cyclo(Orn-Asn-D-Phe-Arg-Trp-Glu)-NH2] | – | 50 nM |
| RKXFRWD (HELM PEPTIDE1{[ac].R.K.[Dab].[dF].R.W.D}$PEPTIDE1,PEPTIDE1,3:R3-8:R3$$$V2.0; SMILES CC(=O)N[C@@H](CCCNC(=N)N)C(=O)N[C@H]1CCCCNC(=O)C[C@@H](C(=O)O)NC(=O)[C@H](Cc2c[nH]c3ccccc23)NC(=O)[C@H](CCCNC(=N)N)NC(=O)[C@@H](Cc2ccccc2)NC(=O)[C@H](CCN)NC1=O, also called peptide No. 131) [Ac-Arg-cyclo(Lys-Dab-D-Phe-Arg-Trp-Asp)-OH] | – | 35 nM |
| Pentanoyl-EH[dF]R[Dab]W-NH2 (lactam 1-5, also called peptide No. 153) [n-C4H9-CO-cyclo(Glu-His-D-Phe-Arg-Dab)-Trp-NH2] | – | 365 nM |
| RXQFRWX (N-acetyl; X2 = hGlu; D-Phe 4; X7 = Dab; side-chain lactam hGlu2-Dab7; C-terminal amide, also called peptide No. 147) [Ac-Arg-cyclo(hGlu-Gln-D-Phe-Arg-Trp-Dab)-NH2] | – | 20 nM |

Results, then the binder that gave them:

| Ki [1] | Ki [2] | Binder |
| --- | --- | --- |
| – | 1 nM | Ac-RD[Thr(Bzl)][dF]RWK-NH2 (lactam 2-7, also called peptide No. 14) [Ac-Arg-cyclo(Asp-Thr(Bzl)-D-Phe-Arg-Trp-Lys)-NH2] |
| – | 7 nM | Ac-RD[Met(O2)][dF]RWK-NH2 (lactam 2-7, also called peptide No. 77) [Ac-Arg-cyclo(Asp-Met-(O2)-D-Phe-Arg-Trp-Lys)-NH2] |
| – | 9 nM | Ac-RE[Orn][dF]RW[Orn]-OH (lactam 2-7, also called peptide No. 90) [Ac-Arg-cyclo(Glu-Orn-D-Phe-Arg-Trp-Orn)-OH] |
| – | 6 nM | H-R[Orn]H[dF]RWE-NH2 (lactam 2-7, also called peptide No. 99) [Arg-cyclo(Orn-His-D-Phe-Arg-Trp-Glu)-NH2] |
| – | 3 nM | Ac-RD[Hyp(Bzl)][dF]RWK-OH (lactam 2-7, also called peptide No. 54) [Ac-Arg-cyclo(Asp-Hyp(Bzl)-D-Phe-Arg-Trp-Lys)-OH] |
| – | 4 nM | Ac-REH[dF]RW[Orn]-OH (lactam 2-7, also called peptide No. 82) [Ac-Arg-cyclo(Glu-His-D-Phe-Arg-Trp-Orn)-OH] |
| – | 6 nM | Ac-RE[Pro(trans-4-NH2)][dF]RW[Orn]-NH2 (lactam 2-7, also called peptide No. 112) [Ac-Arg-Cyclo(Glu-Pro(4R-NH2)-D-Phe-Arg-Trp-Orn)-NH2] |
| – | 8 nM | Ac-RE[Met(O2)][dF]RW[Orn]-NH2 (lactam 2-7, also called peptide No. 100) [Ac-Arg-cyclo(Glu-Met(O2)-D-Phe-Arg-Trp-Orn)-NH2] |
| – | 3 nM | RDHXRWK (N-acetyl; X4 = D-Nal 1 (D-3-(1-naphthyl)alanine); side-chain lactam Asp2-Lys7; C-terminal amide, also called peptide No. 19) [Ac-Arg-cyclo(Asp-His-D-Nal 1-Arg-Trp-Lys)-NH2] |
| – | 0.4 nM | RKXFRWD (HELM PEPTIDE1{[ac].R.K.[Dab].[dF].R.W.D.[am]}$PEPTIDE1,PEPTIDE1,3:R3-8:R3$$$V2.0; SMILES CC(=O)N[C@@H](CCCNC(=N)N)C(=O)N[C@H]1CCCCNC(=O)C[C@@H](C(N)=O)NC(=O)[C@H](Cc2c[nH]c3ccccc23)NC(=O)[C@H](CCCNC(=N)N)NC(=O)[C@@H](Cc2ccccc2)NC(=O)[C@H](CCN)NC1=O, also called peptide No. 121) [Ac-Arg-cyclo(Lys-Dab-D-Phe-Arg-Trp-Asp)-NH2] |
| – | 4 nM | Ac-RD[Hyp][dF]RWK-NH2 (lactam 2-7, also called peptide No. 79) [Ac-Arg-cyclo(Asp-Hyp-D-Phe-Arg-Trp-Lys)-NH2] |
| – | 5 nM | Ac-RD[Pro(trans-4-NH2)][dF]RWK-NH2 (lactam 2-7, also called peptide No. 80) [Ac-Arg-cyclo(Asp-Pro(4R-NH2)-D-Phe-Arg-Trp-Lys)-NH2] |
| – | 4 nM | RXMFRWX (HELM PEPTIDE1{[ac].R.[O=C([C@H](CCCC(=O)[*:3])N[*:1])[*:2]].[CS(=O)(=O)CC[C@H](N[*:1])C(=O)[*:2]].[dF].R.W.[Dab].[am]}$PEPTIDE1,PEPTIDE1,3:R3-8:R3$$$V2.0; SMILES CC(=O)N[C@@H](CCCNC(=N)N)C(=O)N[C@H]1CCCC(=O)NCC[C@@H](C(N)=O)NC(=O)[C@H](Cc2c[nH]c3ccccc23)NC(=O)[C@H](CCCNC(=N)N)NC(=O)[C@@H](Cc2ccccc2)NC(=O)[C@H](CCS(C)(=O)=O)NC1=O) [Ac-Arg-cyclo(hGlu-Met(O2)-D-Phe-Arg-Trp-Dab)-NH2] |
| – | 7 nM | Ac-RE[Orn](Ac)[dF]RW[Orn]-NH2 (lactam 2-7, also called peptide No. 149) [Ac-Arg-cyclo(Glu-Orn(Acetyl)-D-Phe-Arg-Trp-Orn)-NH2] |
| – | 0.6 nM | Ac-R[Orn]H[dF]RWE-NH2 (lactam 2-7, also called peptide No. 75) [Ac-Arg-cyclo(Orn-His-D-Phe-Arg-Trp-Glu)-NH2] |
| – | 4 nM | Ac-RKQ[dF]RWD-NH2 (lactam 2-7, also called peptide No. 151) [Ac-Arg-cyclo(Lys-Gln-D-Phe-Arg-Trp-Asp)-NH2] |
